“Also recorded” adds a separate entry of the source.
Legend:
[1] = biological target: T1, VAP-1 (SSAO enzymatic activity) (Homo sapiens, UniProt Q16853); experiment: Isotopic enzyme assay of SSAO activity of VAP-1 (14C-benzylamine, CHO-VAP-1 cell lysate); assay type: biochemical; settings: 30 min preincubation with CHO-VAP-1 lysate
T1 construct: expressed in transfected cells; host or cells: CHO cells (CHO-VAP-1)
T1 sequence (Q16853 1-763): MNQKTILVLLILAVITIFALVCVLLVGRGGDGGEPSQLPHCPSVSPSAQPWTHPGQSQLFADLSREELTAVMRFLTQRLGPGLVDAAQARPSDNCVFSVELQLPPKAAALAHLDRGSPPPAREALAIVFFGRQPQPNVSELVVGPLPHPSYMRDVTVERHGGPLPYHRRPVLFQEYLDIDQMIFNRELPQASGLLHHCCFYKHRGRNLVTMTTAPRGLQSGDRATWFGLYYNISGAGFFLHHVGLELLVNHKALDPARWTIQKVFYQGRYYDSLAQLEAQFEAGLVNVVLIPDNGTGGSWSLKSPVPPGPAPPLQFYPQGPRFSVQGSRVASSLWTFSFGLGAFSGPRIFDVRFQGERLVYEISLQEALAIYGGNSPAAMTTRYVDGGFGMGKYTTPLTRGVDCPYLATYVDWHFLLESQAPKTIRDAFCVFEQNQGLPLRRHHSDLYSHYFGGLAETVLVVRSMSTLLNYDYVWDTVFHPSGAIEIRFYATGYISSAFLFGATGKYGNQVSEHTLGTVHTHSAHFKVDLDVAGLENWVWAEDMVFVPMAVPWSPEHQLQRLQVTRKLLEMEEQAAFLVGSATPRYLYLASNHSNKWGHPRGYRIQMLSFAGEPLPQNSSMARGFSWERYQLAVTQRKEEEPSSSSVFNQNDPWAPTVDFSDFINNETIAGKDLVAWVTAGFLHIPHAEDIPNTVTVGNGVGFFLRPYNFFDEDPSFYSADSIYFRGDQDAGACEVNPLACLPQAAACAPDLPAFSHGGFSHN
Description: Semicarbazide sensitive mine oxidase (SSAO) enzymatic activity of VAP-1 after interaction with Siglec-10 was determined radiochemically. Briefly, 14-C labeled benzylamine (a model substrate for SSAO) was used as the substrate. The assay was performed at 37° C. for 120 minutes in a final volume of 400 microliters 0.1 mM Krebs-Ringer phosphate glucose buffer (pH 7.35) containing CHO-VAP-1 cell lysate and 5 microM benzylamine with tracer ^14C benzylamine (40 000 dpm) in the presence of 1 mM clorgyline (a MAO inhibitor). In the inhibitory studies, the lysate was preincubated 30 minutes with 10 micrograms/ml or 70 micrograms/ml Siglec-10-Ig-chimera or 1 mM semicarbazide before adding the benzylamine. Catalytic reaction was stopped with citric acid, and the aldehyde reaction products were extracted from the analyzed mixture into toluene containing 0.35 g/L diphenyloxazole. The amount of 14C-labeled benzaldehyde was quantified by scintillation counting using a beta-counter Wallac-1409 (Turku, Finland), and the activity of the enzyme was expressed as picomoles of benzaldehyde formed by milliliter of lysate per hour.

[2] = biological target: T2, recombinant VAP-1 (Homo sapiens, UniProt Q16853); experiment: ELISA binding of Siglec-10-Ig-chimera to recombinant VAP-1; settings: chimera immobilized via anti-human IgG; VAP-1 detected with biotinylated TK-8-18
T2 sequence (Q16853 1-763): T1 sequence (Q16853 1-763)
Description: Siglec 10-Fc chimera binding to VAP-1. Anti-human IgG (Fc specific) antibody was coated onto Nunc Maxisorp wells overnight at 4° C. After blocking with PBS/2% BSA, Siglec-10-Ig-chimera (1 microgram/ml) was immobilized to wells via its Fc-tail for 2 h at room temperature and thereafter, recombinant VAP-1 ([…] incubated in wells for 2 h at room temperature. After washing the wells with PBS/0.1% Tween, biotinylated anti-human VAP-1 antibody (TK-8-18) was incubated in the wells for 1 h at room temperature and after that, the wells were incubated with HRP conjugated streptavidin for 1 h at room temperature. After washing the wells, a BM chemiluminescence ELISA substrate was added to the wells and luminescence was measured with Tecan luminometer.

[3] = biological target: T3, VAP-1 expressed on the cell surface (CHO-VAP-1 cells) (Homo sapiens, UniProt Q16853); experiment: Epitope analysis: competitive surface staining of CHO-VAP-1 cells with anti-VAP-1 mAb, flow cytometry; assay type: cell-based; settings: cells expressing VAP-1 first incubated with 10 micrograms/ml protein, then anti-VAP-1 (JG2.10)
T3 construct: expressed in transfected cells; host or cells: CHO cells (CHO-VAP-1)
T3 sequence (Q16853 1-763): T1 sequence (Q16853 1-763)
Description: Surface stainings of CHO-VAP-1 and CHO-mock cells were performed using anti-VAP-1 (JG2.10) and a negative control (9B5) mAbs. Competitive stainings were done in the presence of 10 micrograms/ml either human Ig or Siglec-10-Ig. Alexa546-conjugated goat anti-rat IgG was used as the secondary reagent. All cells were analyzed using FACSCalibur and Cellquest software.

[4] = biological target: T4, purified recombinant VAP-1 (Homo sapiens, UniProt Q16853); experiment: ELISA binding of biotinylated synthetic peptides to immobilized VAP-1; settings: wells coated with VAP-1, BSA as negative control; streptavidin-HRP chemiluminescence detection
T4 sequence (Q16853 1-763): T1 sequence (Q16853 1-763)
Description: Binding of peptides to VAP-1. VAP-1 and BSA as a negative control were immobilized in wells of Nunc Maxisorp 96-well ELISA plate overnight at 4° C., blocked with PBS/3% BSA for 1 h at 37° C. and incubated with biotinylated peptides (10 micrograms/ml or 100 micrograms/ml) for 2 h at room temperature. The wells were washed with PBS/0.1% Tween, incubated with HRP conjugated streptavidin for 1 h at room temperature and after washing a BM chemiluminescence ELISA substrate was added. Luminescence was measured with a luminometer (Tecan Ultra, Tecan, Zürich, Switzerland).

Substance | Binding of biotinylated synthetic peptide to VAP-1 (ELISA) [4] | also measured
Siglec-10-Ig-chimera: Siglec-10 fused to an Ig Fc-tail, counter-receptor for VAP-1 |  | Inhibition of SSAO activity of VAP-1 ([1]; 10 μg/ml (~7 nM)): 20%; Inhibition of SSAO activity of VAP-1 ([1]; 70 μg/ml (~50 nM)): 30%; Interaction of Siglec-10-Ig-chimera with purified VAP-1 (ELISA) [2]: interacts with VAP-1; Cells positive for anti-VAP-1 antibody staining [3]: 43.7%
CVKWRGVVVC (Phage display library peptide) [peptide P1] | shown to bind to VAP-1; also recorded: efficiently bound to purified recombinant VAP-1 | 
CARLSLSWRGLTLCPS (listed as Homo sapiens) [P5] | bound specifically to wells coated with purified VAP-1 in comparison to BSA | 
CATLSWVLQNRVLSSC (listed as Homo sapiens) [P3, longer peptide matching Siglec-10 residues 284-297, cysteines added to both ends] | bound specifically to wells coated with purified VAP-1 in comparison to BSA | 
CWSFRNRVLC (Phage display library peptide) [peptide P2] | shown to bind to VAP-1; also recorded: efficiently bound to purified recombinant VAP-1 | 
